Experimental data published in paper PMC9675976, “Selfish uptake versus extracellular arabinoxylan degradation in the primary degrader Ruminiclostridium cellulolyticum, a new string to its bow” (Biotechnology for Biofuels and Bioproducts, 2022).

What was measured:
XuaH = XuaH (Ruminiclostridium cellulolyticum, UniProt B8I0P1); assay: Esterase activity of XuaH; assay type: biochemical; settings: 37 °C, 25 mM phosphate buffer pH 7, XuaH 0.1 µM for 1-naphthyl acetate
Experimental: (§1) Esterase activity was tested using 1-Naphthyl acetate. Release of 1-Naphthol was monitored at 320 nm during 5 min at 37 °C in 25 mM phosphate buffer pH 7, with substrate final concentration ranging from 110 µM and 5.36 mM, and with XuaH (0.1 µM) or XuaJ (0.01 µM). Concentration of released 1-Naphthol during the first minute of the assay was determined based on 1-Naphthol standard curve.

XuaJ = XuaJ (Ruminiclostridium cellulolyticum, UniProt B8I0P3); assay: Esterase activity of XuaJ; assay type: biochemical; settings: 37 °C, 25 mM phosphate buffer pH 7, XuaJ 0.01 µM for 1-naphthyl acetate
Experimental: as §1

[1] = substrate: OC[C@@H]1O[C@@H](O[C@@H]2[C@@H](O[C@@H]3O[C@@H](CO)[C@H](O)[C@H]3O)[C@H](O[C@@H]3CO[C@@H](O[C@@H]4COC(O)[C@H](O)[C@H]4O)[C@H](O)[C@H]3O)OC[C@H]2O)[C@H](O)[C@H]1O; assay: Enzyme activity of XuaD on AXOS (HPAEC-PAD); assay type: biochemical, Ruminiclostridium cellulolyticum; settings: other: 37 °C, substrate 0.05 to 8 mM
Experimental: (§2) XuaD, E, F, G (0.01 to 1 µM) were tested with different AXOS and/or XOS at 1 mM with incubation times varying from 5 min to 24 h. Enzymes (10 nM) were incubated at 37 °C for 5 min, kinetic parameters of XuaD were determined with both A^2,3XX and A^2XX, with sugar concentration varying from 0.05 to 8 mM, and XuaE with A^2,3XX with sugar concentration varying from 0.05 to 1 mM (at least 9 concentration point). Substrates and released products were quantified by high performance anion exchange chromatography coupled with pulsed amperometric detection on an ICS-3000 using a PA1 column (Thermo Scientific). Sugars were eluted with the buffers 0.1 M NaOH and 0.5 M sodium acetate + 0.1 M NaOH as the eluants A and B, respectively, using the multistep procedure as follows: isochratic separation (5 min, 95% A + 5% B), separation gradient (8 min, 10–37% B), column wash (2 min, 99% B), and subsequent column equilibration (2.5 min, 95% A + 5% B).

[2] = substrate: OC[C@@H]1O[C@@H](O[C@H]2[C@H](O[C@@H]3CO[C@@H](O[C@@H]4COC(O)[C@H](O)[C@H]4O)[C@H](O)[C@H]3O)OC[C@@H](O)[C@@H]2O)[C@H](O)[C@H]1O; assay: Enzyme activity of XuaD on AXOS (HPAEC-PAD); assay type: biochemical, Ruminiclostridium cellulolyticum; settings: other: 37 °C, substrate 0.05 to 8 mM
Experimental: as §2

[3] = substrate: CC(=O)Oc1cccc2ccccc12; assay: Esterase activity of XuaJ; assay type: biochemical, Ruminiclostridium cellulolyticum; settings: other: 37 °C, pH 7, substrate 110 µM to 5.36 mM
Experimental: as §1

Sequence of XuaH (B8I0P1 entry or part of it): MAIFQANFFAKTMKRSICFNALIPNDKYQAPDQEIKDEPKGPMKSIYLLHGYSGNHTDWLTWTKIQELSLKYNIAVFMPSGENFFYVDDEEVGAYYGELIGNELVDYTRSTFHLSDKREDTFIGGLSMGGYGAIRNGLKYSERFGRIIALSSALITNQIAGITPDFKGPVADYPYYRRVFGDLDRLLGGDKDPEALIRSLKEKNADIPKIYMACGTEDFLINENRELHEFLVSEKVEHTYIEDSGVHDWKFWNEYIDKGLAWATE

Molecule: CC(=O)Oc1cccc2ccccc12 [1-Naphthyl acetate]
- Specific activity (IU) of XuaH (XuaH): IU: 3504.6 ± 18.9 IU/µmol of enzyme
- Specific activity (IU) of XuaJ (XuaJ): IU: 21130.4 ± 676.4 IU/µmol of enzyme

B1: XuaD (Ruminiclostridium cellulolyticum H10) (protein)
chain: MVKMILNADIKKGKINKNIYGHFSEHLGRCIYEGLWVGEDSEIPNINGFRTDVVEALKKMKIPVLRWPGGCFADEYHWVDGIGPKENRPCMVNTHWGGVVENNHFGTHEFLELCEMLGAEPYICGNVGSGTVHEMQQWVEYMTFDGKSPMADLRRANGKEEPWRVKYFGVGNENWGCGGNMTAEFYADQYKRYATYVRNFGDNKIYKIAGGASVDDYHWTEVLMREAGKQMDGLSVHYYTRISKDWSEQGSATEFDENHWFSVMQNALFTEELVVRHSNIMDKYDPEKKVGMIVDEWGTWFAVEPGTNPGFLYQQNTMRDALVAGIHLNIFNNHCDRVQMANIAQMVNVLQAVILTEGKKMLLTPTYHVFDMYKVHQGAELLSLDFESPEYAYNGEKVPQLSASSSVDSEGKIHVTICNLNPSADVNIDIDLRGVKSKSSTGKIITSNAMNAKNTFEETTNVTIKNFEDINLENNHISGKIPSKSVVLLEIV
- Km [1]: Km 1.8 ± 0.2 mM
- kcat [1]: kcat 4191.3 ± 117.3 min^−1
- kcat/Km [1]: kcat/Km 2388.2 ± 182.9 min^−1 mM^−1
- Km [2]: Km 1.4 ± 0.3 mM
- kcat [2]: kcat 3408.0 ± 356.6 min^−1
- kcat/Km [2]: kcat/Km 2411.9 ± 303.3 min^−1 mM^−1

B2: XuaJ (Ruminiclostridium cellulolyticum H10) (protein)
chain: MGIILNSNRPKIRLPRIISDGMVLQRNTDVKIWGWASPGEAVTVRFIGKAYHAFADDSGEWFVRLEQAKAGGPYDMYIETEESLEKITIKNILMGDVWLCSGQSNMEMKMDSVKDTYPDEIVHSCNDYIRHFLVPVKYDFEKPQTDLEAGIWEAANPESILDFTATGYFFALKLFEKYNIPIGLINASLGGSPAEAWLSENALREFPEHYESAKQLSNRDYLDKVLREDQESAEAWYTALNQNDEGLKSNDIPFHDTEYDAPFWQNIKVPSYWEDEGVGNFNGVVWFRKEIDIPSTLADKPARLVLGNIVDEDTAYINGIEVGTTPNQYITRKYSIQEGLLKEGKNTIVLRVVNTAGKGGFYKDKPYQLEIGDNIIELSGEWQYMIGAKSSPMPAPAFVQWRPLGLYNGMIAPVTSYSIKGFIWYQGESNTKNPGEYENLLKALIADWRQKWNMGNLPFLYVQLPNFMEASEIPMESSWAELREAQRRTLSVPCTGMAVAIDLGEWNDIHPVNKKDVGFRLALAAMKTAYRDKTIVAYGPMYQSGKIDGNRIILSFTDTGSGLTVKNGDRPEAFAIAGADRTFVRADAEIIGDSVAVWSEKVSHPVYVKYAWADNPADANLYNLEGLPASPFTTE
- Km [3]: Km: 0.2 ± 0.02 mM
- kcat [3]: kcat: 21380.0 ± 440.0 min^-1
- kcat/Km [3]: kcat/Km: 88703.9 ± 7849.6 min^-1 mM^-1
